Data on one molecule can be found in paper PMC10617019 (Nature cell biology, 2023).

The term Kd denotes the constant that tells how readily two partners part at equilibrium. Read a high Kd as lower affinity.

Where no end group is shown, it is not given here. [ ]: non-standard residue; d: D form. Hyp = O=C(O)[C@@H]1C[C@@H](O)CN1

The target of this assay is pVHL in complex with elongin C and elongin B (VCB) (human, UniProt P40337 55-213; Q15370 1-118). The assay is described as follows: fluorescence polarisation. (Fluorescence polarisation rises when a labelled molecule tumbles more slowly, as on binding a larger partner.)

B1: Fluorescein isothiocyanate-labelled RIPK1 peptide T189LYYMA(Hyp)EHLNDVNA203 (peptide)
peptide: TLYYMA[Hyp]EHLNDVNA
modifications: also: FITC label, position not given here
Consider B1, for which binding was characterised by a dissociation constant (Kd) of 5.9 µM.
